Measured values from paper PMC4596477, “Interaction of Myosin Phosphatase Target Subunit (MYPT1) with Myosin Phosphatase-RhoA Interacting Protein (MRIP): A Role of Glutamic Acids in the Interaction” (PLoS ONE, 2015).
Blank lines part the entries; values can stand above or below the molecule they belong to.

Experiments:
[1] = tested on: CCLR; assay: AUC interaction of MRIP peptides with MYPT1 peptide CCLR (residues 924–1030); assay type: binding; details: equimolar mixtures (MRIP^545-878 14 μM each; MRIP^724-878 30 μM each; MRIP^724-837 67 μM each) and 3-, 9-fold dilutions, pH 7.4, 100 mM KCl, 20°C
Experimental: AUC was performed to examine the interactions of MRIP^545-878, MRIP^724-878, or MRIP^724-837 individually with the MYPT1 peptide (residues 924–1030) containing a putative coiled coil domain (CC) and the leucine repeat region (LR), designated as CCLR.
Fig 3 All MRIP peptides bind to the C-terminal region of MYPT1, CCLR (residues 924–1030). Concentration-normalized time derivative g(s*) graphs of the MRIP peptides by themselves and in equimolar mixtures: Lines, CCLR (30 μM); +, individual MRIP peptides by themselves (MRIP^545-878, 14 μM; MRIP^724-878, 50 μM; MRIP^724-837, 67 μM); black filled-in circles, original equimolar mixtures (MRIP^545-878, 14 μM each; MRIP^724-878, 30 μM each; MRIP^724-837, 67 μM each); open circles, 3-fold dilutions; gray filled-in circles, 9-fold dilutions.
The cDNA fragment encoding MRIP peptides were amplified using a full-length MRIP cDNA as a template with the following primer pairs: MRIP^545-878, 5’-[…]/5’[…]; MRIP^724-878, 5’-[…]/5’-[…]; MRIP^724-837, 5’-[…]/5’-[…]. The PCR products were ligated into pCR2.1-TOPO using the TA cloning system and sequenced in both directions. The IMPACT™ (Intein Mediated Purification with an Affinity Chitin-binding Tag) Kit (New England BioLabs) was used to express peptides in bacteria to obtain tag-free peptides. The PCR amplicon encoding MRIP peptides were fused in frame to the chitin binding domain of pTYB12 vector utilizing the NdeI/EcoRI restriction sites. The expression vectors for the MYPT1 peptides, CCLR (residues 924–1030), CC (residues 924–990), and LR (residues 991–1030) were constructed as described: In the reference literature, CCLR and LR were named CCLZ and LZ, respectively. Recombinant peptides were produced in Escherichia coli strain BL21 (DE3) and purified using chitin beads according to the manufacturer's protocol. For further purification, the eluent from chitin beads was loaded on a Vydac C8 reversed phase column and subjected to HPLC using an acetonitrile gradient. Purity and identity of the peptides were confirmed by polyacrylamide gel electrophoresis (PAGE) and mass spectrometry. […]

[2] = AUC of MYPT1 peptides alone (concentration dependence, self-association); assay type: physicochemical; details: CC alone, 107 μM and 3-, 9-fold dilutions, MRIP^724-878 alone, 50 μM and 3-, pH 7.4, 20°C
From the text: To determine the minimal MRIP-binding region of MYPT1, AUC was employed to examine interactions between sub-domains of CCLR, CC (residues 924–990) and LR (residues 991–1030) with MRIP^724-878 (Fig 4A). CC is the putative coiled coil domain and LR contains 16 upstream amino acid residues (residues 991–1006) in addition to the leucine repeat (residues 1007–1028). MRIP^724-878 was chosen because of its good fit to a single component, single-species model. […] Global fitting of the mixture to a two-component model produced a good fit and the RMSD of the fit was 0.010 (Fig 4B; Fitting of CC).
Fig 4 LR contains sufficient residues for the MYPT1/MRIP interaction. […] CC; Concentration-normalized time derivative g(s*) plots of CC, MRIP^724-878, and equimolar mixtures of the two peptides: Black filled-in circles, an original CC alone (107 μM); dark gray filled-in circles, a 3-fold dilution of CC alone; light gray filled-in circles, a 9-fold dilution of CC alone; black filled-in triangles, an original MRIP^724-878 alone (50 μM); dark gray filled-in triangles, a 3-fold dilution of MRIP^724-878 alone; light gray filled-in triangles, a 9-fold dilution of MRIP^724-878 alone; a black line, an original equimolar mixture of MRIP^724-878/CC (50 μM each): a dark gray line, a 3-fold dilution of the mixture; a light gray line, a 9-fold dilution of the mixture. […]

[3] = target: LR; assay: SPR, MRIP^724-878 as analyte over immobilized LR; assay type: binding; details: Biacore 3000, 25°C, analyte MRIP^724-878 (dimeric) 85.6–0.7 μM, LR immobilized (244.8 RU), nebulin-derived peptide reference, 50 mM potassium phosphate pH 7.4, 100 mM KCl, steady-state affinity, mean and standard deviation, 6 experiments
Experimental: (§1) Analytes CCLR, CC, LR: Interactions between analytes, CCLR (167–1 μM), CC (318–10 μM), and LR (569–5 μM) with immobilized ligand, MRIP^724-878 (1800 RU) after correction for nonspecific binding using G-actin (2230 RU). Shown is a representative out of 9 experiments for CCLR and 8 for LR in each, duplicates or triplicates. Insets show fittings of steady-state affinity. Ligand LR: Interaction of analyte, MRIP^724-878 (85.6–0.7 μM) with immobilized ligand, LR (244.8 RU) after correction for nonspecific binding using a nebulin-derived peptide (600 RU). Shown is a representative out of 6 experiments.
This could be explained by the fact that free, solution-based MRIP^724-878 might have preserved homodimers better than the amine coupled. Consequently, we speculated that the MRIP^724-878 dimer might have higher MYPT1-binding affinity than its monomer.
(§2) Binding analyses of SPR were conducted on a Biacore 3000 (GE Healthcare) at 25°C. Sensor chips and reagents for immobilization (1-ethyl-3-(3-dimethylaminopropyl) carbodiimide, N-hydroxyl-succinimide, and ethanolamine) were purchased from GE Healthcare. Peptides were immobilized onto a CM5 sensor chip at 232–5841 resonance units (RU) using amine coupling. Binding studies were done using two-fold serial dilutions of the peptides in 50 mM potassium phosphate buffer (pH 7.4) containing 100 mM KCl. […]

[4] = AUC sedimentation velocity of MRIP peptides alone (molar mass, sedimentation coefficient, oligomeric state); assay type: physicochemical
From the text: The RMSD of the fit was 0.008.
The cDNA fragment encoding MRIP peptides were amplified using a full-length MRIP cDNA as a template with the following primer pairs: MRIP^545-878, 5’-[…]/5’[…]; MRIP^724-878, 5’-[…]/5’-[…]; MRIP^724-837, 5’-[…]/5’-[…]. The PCR products were ligated into pCR2.1-TOPO using the TA cloning system and sequenced in both directions. The IMPACT™ (Intein Mediated Purification with an Affinity Chitin-binding Tag) Kit (New England BioLabs) was used to express peptides in bacteria to obtain tag-free peptides. The PCR amplicon encoding MRIP peptides were fused in frame to the chitin binding domain of pTYB12 vector utilizing the NdeI/EcoRI restriction sites. The expression vectors for the MYPT1 peptides, CCLR (residues 924–1030), CC (residues 924–990), and LR (residues 991–1030) were constructed as described: In the reference literature, CCLR and LR were named CCLZ and LZ, respectively. Recombinant peptides were produced in Escherichia coli strain BL21 (DE3) and purified using chitin beads according to the manufacturer's protocol. For further purification, the eluent from chitin beads was loaded on a Vydac C8 reversed phase column and subjected to HPLC using an acetonitrile gradient. Purity and identity of the peptides were confirmed by polyacrylamide gel electrophoresis (PAGE) and mass spectrometry. For the mutagenesis study of LR, the wild-type and mutant LR peptides were synthesized, purified by reverse-phase HPLC, and lyophilized to dryness at the peptide core in Boston Biomedical Research Institute.
Sedimentation velocity experiments were done on a Beckman Instruments Optima XL-I analytical ultracentrifuge equipped with Rayleigh optics. The cells were equipped with sapphire windows and 12 mm charcoal-filled Epon centerpieces. Apparent sedimentation coefficient distribution patterns were computed by the time derivative method. Peptides were dialyzed against 50 mM potassium phosphate buffer (pH 7.4) containing 100 mM KCl, and 1 mM DTT at 4°C overnight and then subjected to AUC at 50,000 rpm and 20°C. Molar mass was computed from sedimentation velocity profiles using SedAnal, which uses a nonlinear least-squares curve fitting algorithm to fit data to solutions of the differential equation (the Lamm equation) describing sedimentation. Fits were performed on time difference data to remove the time-independent systematic baseline components. Values of s and D produced by the fitting procedure were substituted into the Svedberg equation to obtain the molar mass of the protein, M: M=RT/(1−ν¯ρ)s20,wo/D20,wo where ρ is the density of the buffer and ν¯ is the partial specific volume of the protein. Sednterp was employed to compute values of ρ and ν¯ from the amino acid sequence.

[5] = target: T1, MRIP^724-878 (myosin phosphatase-RhoA interacting protein, residues 724–878; CC2-CC4) (UniProt Q6WCQ1 724-878); assay: SPR; Biacore 3000, 25°C; LR immobilised (244.8 RU) by amine coupling on CM5, analyte MRIP^724-878 (85.6–0.7 μM); reference surface a nebulin-derived peptide; 50 mM potassium phosphate pH 7.4, 100 mM KCl; steady-state affinity fit; details: both partners purified
T1 construct: Tight homodimer in solution by AUC; the forward primer puts an NdeI ATG before the codons GAGCGAGGGTTTGCAGCAATG; source: E. coli BL21 (DE3), purified (chitin beads, C8 reversed-phase HPLC)
T1 sequence (looked up): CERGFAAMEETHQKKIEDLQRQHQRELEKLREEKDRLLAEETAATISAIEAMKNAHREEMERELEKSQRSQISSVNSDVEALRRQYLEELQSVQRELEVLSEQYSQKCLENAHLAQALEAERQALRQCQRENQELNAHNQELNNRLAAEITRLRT

[6] = target: T1, MRIP^724-878 (myosin phosphatase-RhoA …); assay: SPR; Biacore 3000, 25°C; MRIP^724-878 immobilised (1800 RU) by amine coupling on CM5, analytes CCLR (167–1 μM), CC (318–10 μM), LR (569–5 μM); reference surface G-actin; 50 mM potassium phosphate pH 7.4, 100 mM KCl; steady-state affinity fit; details: both partners purified
[7] = target: T2, MRIP^724-878 (Homo sapiens, UniProt Q6WCQ1); assay: SPR, MYPT1 peptides as analytes over immobilized MRIP^724-878; assay type: binding; details: 25°C, pH 7.4, CCLR 167–1 μM, CC 318–10 μM, LR 569–5 μM
T2 construct: MRIP^724-878 (residues 724–878; CC2-CC4); made in house; host or cells: Escherichia coli BL21 (DE3)
T2 sequence (Q6WCQ1 725-879): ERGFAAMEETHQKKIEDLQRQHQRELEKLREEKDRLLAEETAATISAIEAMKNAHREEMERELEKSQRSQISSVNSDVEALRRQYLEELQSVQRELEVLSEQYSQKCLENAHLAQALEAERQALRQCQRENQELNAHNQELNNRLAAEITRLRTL
Experimental: To corroborate the results from AUC studies, SPR was employed. […] Equilibrium K d values were obtained by nonlinear curve fitting of reference-corrected curves using the steady-state affinity fitting model in BIAevaluation version 4–1.
as §1, §2

[8] = ref [14]; cited from earlier work
Experimental: The concentration ranges of the MRIP peptides in the mixtures overlap with those of the MRIP peptides by themselves (Fig 2). Thus, the greater s* values of the MRIP/MYPT1 mixtures than those of the individual MRIP peptides indicate that MRIP^545-878 monomer, MRIP^724-878 dimer, and the mixture of monomer and dimer of MRIP^724-837 bind to CCLR. […] To obtain the binding stoichiometry, AUC was performed using MRIP^724-878/CCLR mixtures at different ratios of the two peptides. MRIP^724-878 was chosen because the AUC stu ... || To obtain the binding stoichiometry, a series of sedimentation equilibrium experiments was performed. MRIP^724-878 was chosen due to its being a single species. Owing to the absence of aromatic residues, LR was employed. AUC was conducted using MRIP^724-878 alone, LR alone, the 1:1 mixture of MRIP^724-878/LR, and the 1:3 mixture of MRIP^724-878/LR. Sedimentation data were collected both at 280 nm to detect only MRIP^724-878 and at 220 nm to detect both.

binding to CCLR (shift in g(s*) curves) [1]: bind to CCLR
Kd [3]: 40 ± 19 µM
B1: MRIP^724-878: recombinant tag-free MRIP peptide, residues 724–878; CC2-CC4 (protein)
chain: T1 sequence (looked up)
modifications: left off: chitin-binding domain (IMPACT kit, pTYB12), N-terminal, cleaved
notes: recombinant tag-free MRIP peptide, residues 724–878; CC2-CC4
concentration dependence of g(s*) curves [2]: superimposable, indicating concentration-independence
molar mass ([4]; AUC sedimentation velocity, SedAnal global fit to single component, single-species ideal model, 4.7–42.3 μM, 50 mM potassium phosphate pH 7.4, 100 mM KCl, 1 mM DTT, 20°C, CL 0.95): 38.2±0.3 kDa
oligomeric state in solution ([4]; AUC sedimentation velocity, pH 7.4, 100 mM KCl, 20°C): forms a tight dimer in solution
sedimentation coefficient ([4]; AUC sedimentation velocity, single component, single-species ideal model, 4.7–42.3 μM, pH 7.4, 100 mM KCl, 20°C, CL 0.95): 2.007±0.002 S
concentration dependence of g(s*) curves ([4]; AUC, MRIP^545-878 1.5–13.6 μM, MRIP^724-878 4.7–42.3 μM, MRIP^724-837 7.5–67.1 μM, pH 7.4, 20°C): no-concentration dependence and the presence of one species in solution

Kd [5]: 40 µM
Kd [6]: 195 µM
B2: LR, leucine repeat region of MYPT1 (residues 991–1030) (peptide, UniProt O14974 991-1030, looked up)
chain: ERRISEMEEELKMLPDLKADNQRLKDENGALIRVISKLSK
notes: no result of its own is told for it; also called WT-LR; source: E. coli BL21 (DE3), purified (chitin beads, C8 reversed-phase HPLC)

complex formation with immobilized MRIP^724-878 [7]: formed complexes
Kd [6]: 14 µM
B3: CCLR, MYPT1 peptide (residues 924–1030) containing a putative coiled coil domain (CC) and the leucine repeat region (LR) (domain or fragment, UniProt O14974 924-1030, looked up)
chain: LEKDDSTDFKKLYEQILAENEKLKAQLHDTNMELTDLKLQLEKATQRQERFADRSLLEMEKRERRALERRISEMEEELKMLPDLKADNQRLKDENGALIRVISKLSK
notes: myosin phosphatase target subunit (MYPT1); also called C-terminal region of MYPT1; source: E. coli BL21 (DE3), purified (chitin beads, C8 reversed-phase HPLC)
self-association [8]: reversible self-association
